Columns and labels:
[1] = molecular target: T1, His-RcrR (Streptococcus mutans UA159) (UniProt Q8DUK6); experiment: EMSA
T1 sequence: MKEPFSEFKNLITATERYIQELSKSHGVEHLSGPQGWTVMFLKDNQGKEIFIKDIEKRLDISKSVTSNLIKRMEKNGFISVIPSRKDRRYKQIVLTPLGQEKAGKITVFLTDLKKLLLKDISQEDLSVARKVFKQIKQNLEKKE

[2] = molecular target: T1, His-RcrR (Streptococcus mutans UA159); experiment: DNase I footprinting

Question: With “GTCTTAGAAAGTAGTCAGAAGGATTAGACTTGTTTGGAAATGAATTATTCTTTTTATGGTTGTGGCTTTTCTTAAGTAATGAAGGCGAAAAGTGAATAGTCCAGCGGACTATTTTAGAAATTCAAGGGAGTTCCATTCTTTTTGGCGCCCCTAGGTCTTACCAACACCTCATGATAGAACTATA (double strand) [P2 (rcrR promoter fragment 2)]” as the sequence, how does the binding [1] read?
Answer: no binding

Question: “AGCGGTTTGAGCACTTTCACTACAGCGAAAAAGCAATCGTTTAAAGTGACTTTATCACCATCAAGCTATAAAAAATTAAATTAGTTCTCATAGAAACTTTTTTCTTGACAATAGTTTAAGGAATCATTATAATAGTTTTCATGAGAACTATTATAATATTCTCATAAAAAGTGAGGTGTTTTT (double strand) [P3 FAM-labeled]” was tested. Which binding [2] did it give?
Answer: binds

Question: How did the binding [1] turn out when “TAAATTTTTCCTAGGTTAACCTAGTCCTCCTTTAATATGATAACAGTACGTTTACTTTTTCATTGTAAACGATTACAAATTTGTTGGCAAGTTGTCCATAGGAAAAAAGCGCAATTTTTGTTAAAATAAAGTCAGTTGTATGCATTTTTTTAGACAAATTAGATTGAATTGCTTA (double strand) [PSMU_2038 (trehalose PTS promoter)]” was run?
Answer: binds

Question: “AGCGGTTTGAGCACTTTCACTACAGCGAAAAAGCAATCGTTTAAAGTGACTTTATCACCATCAAGCTATAAAAAATTAAATTAGTTCTCATAGAAACTTTTTTCTTGACAATAGTTTAAGGAATCATTATAATAGTTTTCATGAGAACTATTATAATATTCTCATAAAAAGTGAGGTGTTTTT (double strand) [P3 (rcrR promoter fragment 3)]” was tested. Which binding [1] did it give?
Answer: binds

Question: “AAAAACTCCTTTAAATTTCGTTAAGGATAATTTTGAGCAGTAAAAAAGCTCCTAATATAAAAATAGGAGCTGCCAAATAATAGGCTGGTTTTTTTTATAGATGGCTTCTCCCAAACATCCTTATGTAATTCTTCAATATGGTAACATGAAAATAGGGAAAAAGCAAATTTGTTCAATAAAGCCA (double strand) [P1 (rcrR promoter fragment 1)]” was tested. Which binding [1] did it give?
Answer: no binding

Reference: article PMC8407328
